Laboratory results reported in article PMC6511263 (Nature, 2018).

Target: T1, SETD3 (SET domain protein 3) (human, UniProt Q86TU7)
T1 sequence: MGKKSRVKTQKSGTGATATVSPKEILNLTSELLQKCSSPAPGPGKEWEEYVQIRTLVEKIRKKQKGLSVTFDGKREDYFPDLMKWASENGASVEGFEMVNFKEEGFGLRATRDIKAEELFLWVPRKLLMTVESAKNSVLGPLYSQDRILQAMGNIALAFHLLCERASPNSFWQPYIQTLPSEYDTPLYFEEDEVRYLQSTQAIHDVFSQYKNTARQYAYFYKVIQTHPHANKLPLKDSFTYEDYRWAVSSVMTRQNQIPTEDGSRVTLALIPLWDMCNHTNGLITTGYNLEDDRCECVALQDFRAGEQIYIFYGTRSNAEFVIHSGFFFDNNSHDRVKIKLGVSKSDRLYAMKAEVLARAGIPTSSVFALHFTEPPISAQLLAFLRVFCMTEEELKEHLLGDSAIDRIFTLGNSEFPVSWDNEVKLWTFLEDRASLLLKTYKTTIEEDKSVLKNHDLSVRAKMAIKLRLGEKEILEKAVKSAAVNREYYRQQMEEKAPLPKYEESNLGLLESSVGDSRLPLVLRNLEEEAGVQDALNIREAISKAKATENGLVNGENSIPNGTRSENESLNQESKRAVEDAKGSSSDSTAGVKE
Experiment: crystal structure

B1: Human beta-actin peptide (residues 66-80) (peptide)
peptide: TLKYPIEHGIVTNWD
binding result: binds
